# Results published in patent US20230365642A1 (MEDICENNA THERAPEUTICS, published 2023).
# T1: IL4R Type-II (IL4Rα chain with IL13Rα1), on cells (UniProt P24394 26-825; P78552 22-427, limits assumed)
# T1 sequence (looked up) 1: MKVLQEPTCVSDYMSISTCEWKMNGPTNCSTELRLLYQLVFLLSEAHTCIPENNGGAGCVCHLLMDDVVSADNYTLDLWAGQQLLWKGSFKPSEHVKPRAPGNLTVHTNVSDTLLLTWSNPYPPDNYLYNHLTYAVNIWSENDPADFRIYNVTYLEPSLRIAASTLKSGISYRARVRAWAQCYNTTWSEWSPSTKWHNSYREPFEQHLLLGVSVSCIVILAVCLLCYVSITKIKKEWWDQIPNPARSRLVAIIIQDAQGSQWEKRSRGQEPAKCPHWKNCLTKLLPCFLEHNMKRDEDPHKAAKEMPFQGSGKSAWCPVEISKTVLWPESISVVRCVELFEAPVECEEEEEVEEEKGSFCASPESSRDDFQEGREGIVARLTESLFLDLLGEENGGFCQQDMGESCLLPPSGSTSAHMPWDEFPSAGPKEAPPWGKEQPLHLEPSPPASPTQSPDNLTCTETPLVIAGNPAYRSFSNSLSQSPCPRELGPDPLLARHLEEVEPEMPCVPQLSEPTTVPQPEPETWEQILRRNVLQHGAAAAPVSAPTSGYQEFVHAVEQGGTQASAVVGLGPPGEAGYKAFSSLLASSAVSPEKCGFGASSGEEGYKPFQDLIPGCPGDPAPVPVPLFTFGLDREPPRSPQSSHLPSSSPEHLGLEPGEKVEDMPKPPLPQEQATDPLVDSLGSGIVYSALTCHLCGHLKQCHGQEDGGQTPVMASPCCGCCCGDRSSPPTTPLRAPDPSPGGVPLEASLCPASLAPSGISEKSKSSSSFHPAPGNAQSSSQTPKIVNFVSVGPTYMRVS
# T1 sequence (looked up) 2: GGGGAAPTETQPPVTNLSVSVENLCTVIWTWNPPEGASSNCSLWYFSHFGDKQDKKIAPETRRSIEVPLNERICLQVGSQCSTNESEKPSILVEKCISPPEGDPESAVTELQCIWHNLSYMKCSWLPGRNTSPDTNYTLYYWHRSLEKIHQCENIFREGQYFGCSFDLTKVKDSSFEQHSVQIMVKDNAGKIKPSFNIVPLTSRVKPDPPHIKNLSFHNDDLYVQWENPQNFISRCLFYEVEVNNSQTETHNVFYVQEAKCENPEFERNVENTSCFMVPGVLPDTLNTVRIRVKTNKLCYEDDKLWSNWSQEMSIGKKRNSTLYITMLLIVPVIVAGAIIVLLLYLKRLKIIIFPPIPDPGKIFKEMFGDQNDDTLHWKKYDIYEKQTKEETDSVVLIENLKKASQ
# T2: IL13Rα Protein, Human, Recombinant, His Tag (human IL13Rα1) (human, UniProt P78552 22-343, limits assumed)
# T2 construct: also called hIL13Rα1; IL13Ra1; not shown: His tag
# T2 sequence (looked up): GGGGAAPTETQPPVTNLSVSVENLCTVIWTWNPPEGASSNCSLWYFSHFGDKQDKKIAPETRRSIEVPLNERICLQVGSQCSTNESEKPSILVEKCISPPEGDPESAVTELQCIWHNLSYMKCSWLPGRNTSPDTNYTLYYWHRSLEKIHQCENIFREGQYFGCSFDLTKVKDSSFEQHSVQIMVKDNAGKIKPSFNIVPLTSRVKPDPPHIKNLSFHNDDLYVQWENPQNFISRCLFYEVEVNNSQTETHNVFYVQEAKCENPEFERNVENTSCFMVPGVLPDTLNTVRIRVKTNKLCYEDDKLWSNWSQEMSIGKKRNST
# T3: IL13Rα1 Protein, Mouse, Recombinant, His Tag (mouse, UniProt O09030 26-340, limits assumed)
# T3 construct: also called mouse IL13Rα1; mIL13Rα1; not shown: His tag
# T3 sequence (looked up): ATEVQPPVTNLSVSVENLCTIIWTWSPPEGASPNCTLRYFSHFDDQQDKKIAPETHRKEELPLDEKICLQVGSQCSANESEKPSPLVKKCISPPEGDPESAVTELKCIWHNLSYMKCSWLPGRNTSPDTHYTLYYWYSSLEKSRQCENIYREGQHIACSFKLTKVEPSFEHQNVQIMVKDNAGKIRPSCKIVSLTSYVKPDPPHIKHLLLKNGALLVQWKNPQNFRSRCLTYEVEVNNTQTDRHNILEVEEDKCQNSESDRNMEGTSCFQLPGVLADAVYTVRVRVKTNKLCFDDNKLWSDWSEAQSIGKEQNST
# Columns and labels:
# [1] = target: T1, IL4R Type-II (IL4Rα chain with …); experiment: cell-based or functional assay
# [2] = target: T1, IL4R Type-II (IL4Rα chain with …); experiment: cell-based or functional assay; remark: listed apart in the source
# [3] = target: T1, IL4R Type-II (IL4Rα chain with …); experiment: cell-based or functional assay; remark: listed apart in the source
# [4] = target: T2, IL13Rα Protein, Human, Recombinant, His …; experiment: ELISA, receptor coated on plate, anti-human IgG Fc detection
# Method: (§1) Briefly, Receptors listed in Table 26 below were adsorbed to 96 well plates (at 1 μg per well) for 1 hour at room temperature in coating buffer (Carbonate pH 9.6). After coating, wells were washed 5 times with 250 μL of Tris-buffered Saline solution with Tween (TBST: 10 mM Tris HCl, 0.15 M NaCl, 0.1% Tween 20, pH 8.0) and then blocked with 250 μL of blocking buffer (1% BSA in TBS-T) for one hour at room temperature. […] Wells were washed 5 times with TBST prior to sample addition. Samples were diluted as described and then 100 μL of each dilution was added to either receptor coated or albumin blocked wells for 1 hour at room temperature. Wells were then washed 5 times with TBST and probed with 100 μL of the detector antibody (1:5,000 dilution of anti-human IgG Fc Sigma SAB3701284) in blocking buffer (100 μL per well) at room temperature for 45 minutes. […] After a final series of washes, 100 μL of developer (0.1 mg/mL TMB, 0.006% hydrogen peroxide in TMB substrate buffer) was added. Plates were quenched after 10 minutes with 100 μL 1M HCl, and plates were scanned for absorbance at 450 nm to obtain optical density units (OD) for each well.
# [5] = target: T3, IL13Rα1 Protein, Mouse, Recombinant, …; experiment: as above
# Method: as §1
binder,measurement,setting,value
"Fc4-MDNA413 (1:2) (Fc fusion, also called Fc4-MDNA413^R39/Q111 (1:2)) APPCPSCPAPEFLGGPSVFLFPPKPKDTLMISRTPEVTCVVVDVSQEDPEVQFNWYVDGVEVHNAKTKPREEQFNSTYRVVSVLTVLHQDWLNGKEYKCKVSNKGLPSSIEKTISKAKGQPREPQVYTLPPSQEEMTKNQVSLTCLVKGFYPSDIAVEWESNGQPENNYKTTPPVLDSDGSFFLYSRLTVDKSRWQEGNVFSCSVMHEALHNHYTQKSLSLSPGKGGGSGSPGPVPPSTAVRALIEELINITQNQKAPLCNGSMVWSINRTAGMYCAALESLINVSGCSAIEKTQDMLSGFCPHKVSAGQFSSLHVRSSKIEVAQFVKDLLFHLRTLFREGQFN","IL4 EC50 (nM); IL-4 competitive assay, HEK-Blue IL-4/IL-13 reporter cells",[1],7.5 nM
same,"IL 13 EC50 (nM); IL-13 competitive assay, HEK-Blue IL-4/IL-13 reporter cells",[1],37.8 nM
same,"IL-4 Mediated M2 polarization CD206 (IC50 nM), second donor",[2],2.01 nM
same,"IL-4 Mediated M2 polarization CD209 (IC50 nM), first donor",[2],0.59 nM
same,"IL-4 Mediated M2 polarization CD209 (IC50 nM), second donor",[2],2.3 nM
same,"IL-13 Mediated M2 polarization CD206 (IC50 nM), first donor",[3],0.48 nM
same,"IL-13 Mediated M2 polarization CD209 (IC50 nM), first donor",[3],1.6 nM
same,"IL-13 Mediated M2 polarization CD209 (IC50 nM), second donor",[3],0.492 nM
same,binding result,[4],binds
same,binding result,[5],binds
